Residue numbers refer to the chain shown, from its start.
Columns and labels:
Conditions in all cases: protein: recombinant; tags: C-terminal His6; label: 5' fluorescein or TAMRA (FA); unlabeled (NMR)
[1] = target: T1, Nrd1 307-491 G407A (Saccharomyces cerevisiae, UniProt P53617 307-491, G407A); experiment: fluorescence anisotropy; FA: 10 nM RNA, 50 mM sodium phosphate pH 8, 150 mM NaCl, 10 mM beta-mercaptoethanol, 20 C (protein stock in 300 mM NaCl); NMR: same buffer with 300 mM NaCl, 20
T1 sequence: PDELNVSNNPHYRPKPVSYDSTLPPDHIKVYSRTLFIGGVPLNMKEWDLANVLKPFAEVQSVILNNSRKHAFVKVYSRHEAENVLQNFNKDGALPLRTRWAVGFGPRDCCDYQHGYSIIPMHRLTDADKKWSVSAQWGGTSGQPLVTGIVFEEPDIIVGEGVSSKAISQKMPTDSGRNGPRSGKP

[2] = target: T2, Nrd1 307-491 H376A (Saccharomyces cerevisiae, UniProt P53617 307-491, H376A); experiment: as above
T2 sequence: T1 sequence with H70A, A101G

[3] = target: T3, Nrd1 307-491 R405A (Saccharomyces cerevisiae, UniProt P53617 307-491, R405A); experiment: as above
T3 sequence: T1 sequence with R99A, A101G

[4] = target: T4, Nrd1 307-491 T340A (Saccharomyces cerevisiae, UniProt P53617 307-491, T340A); experiment: as above
T4 sequence: T1 sequence with T34A, A101G

[5] = target: T5, Nrd1 307-491 H385A (Saccharomyces cerevisiae, UniProt P53617 307-491, H385A); experiment: as above
T5 sequence: T1 sequence with H79A, A101G

[6] = target: T6, Nrd1 307-491 K380A (Saccharomyces cerevisiae, UniProt P53617 307-491, K380A); experiment: fluorescence anisotropy; text says binding abolished; FA: 10 nM RNA, 50 mM sodium phosphate pH 8, 150 mM NaCl, 10 mM beta-mercaptoethanol, 20 C (protein stock in 300 mM NaCl); NMR: same buffer with 300 mM NaCl, 20
T6 sequence: T1 sequence with K74A, A101G

B1: GUAA (ssRNA)
RNA: GUAA
[1]
  Kd: 13.9 ± 1.7 µM
[2]
  Kd: 59.1 ± 2.6 µM
[3]
  Kd: 17.3 ± 0.9 µM
[4]
  Kd: 153 ± 32.8 µM
[5]
  Kd: 10.3 ± 1.7 µM
[6]
  Kd: 442 ± 24.7 µM
